Literature values as cited in article PMC8384639.

Target: Histone H3 K4me3 peptide 1-15 (Homo sapiens) (UniProt P68431)

BPTF PHD (from UniProt Q12830)
Kd: 2.7 µM
